Here are results for two molecules from patent US20190153113A1, “CD39 VASCULAR ISOFORM TARGETING AGENTS” (INNATE PHARMA, priority 2015, published 2019).

Numbering of substitutions follows the chain as printed. Names may count otherwise.

For series [1], the target named is T1, CD39 mutant 2B (E110A, R113T, E114A) (human, UniProt P49961 1-510).
T1 construct: Transfected in HEK293T cells
T1 chain: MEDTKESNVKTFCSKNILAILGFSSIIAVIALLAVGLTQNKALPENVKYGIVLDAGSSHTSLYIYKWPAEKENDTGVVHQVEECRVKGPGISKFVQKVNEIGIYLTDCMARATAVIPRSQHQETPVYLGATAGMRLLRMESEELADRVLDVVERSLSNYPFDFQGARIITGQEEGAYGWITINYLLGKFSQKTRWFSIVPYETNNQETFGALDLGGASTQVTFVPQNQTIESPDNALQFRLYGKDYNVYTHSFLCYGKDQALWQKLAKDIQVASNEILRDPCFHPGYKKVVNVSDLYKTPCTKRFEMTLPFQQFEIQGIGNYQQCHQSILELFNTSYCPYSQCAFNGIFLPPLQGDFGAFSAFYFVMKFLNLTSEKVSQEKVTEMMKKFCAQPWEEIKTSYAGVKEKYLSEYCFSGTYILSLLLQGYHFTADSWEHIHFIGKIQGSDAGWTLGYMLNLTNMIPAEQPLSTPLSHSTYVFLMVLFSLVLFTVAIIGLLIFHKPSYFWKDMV
Put plainly: flow cytometry, HEK293T cells transfected with mutant 2B. (In general: Flow cytometry measures light scatter and fluorescence of single cells or particles in a stream.)

For series [2], the target named is T2, CD39 mutant 19 (R138A, M139A, E142K) (human, UniProt P49961 1-510).
T2 construct: Transfected in HEK293T cells
T2 chain: T1 chain with A110E, T113R, A114E, R138A, M139A, E142K
Description: flow cytometry, HEK293T cells transfected with mutant 19.

In series [3] the target is T3, CD39 mutant 5 (Q96A, N99A, E143A, R147E) (human, UniProt P49961 1-510).
T3 construct: Transfected in HEK293T cells
T3 chain: T1 chain with Q96A, N99A, A110E, T113R, A114E, E143A, R147E
Description: flow cytometry on transfected HEK293T cells.

Series [4] addresses T4, Human CD39 (vascular CD39, NTPDase1, ENTPD1) expressed at the cell surface (human, UniProt P49961 1-510).
T4 sequence: T1 chain with A110E, T113R, A114E
Description: cell-based or functional assay.

The target of series [5] is T5, CD39 (Homo sapiens, UniProt P49961).
T5 construct: cells that endogenously express CD39 at their surface, e.g. regulatory T (TReg) cells, B cells, cancer cells, lymphoma cells (e.g. Ramos cells); endogenous in cells; host or cells: Ramos human lymphoma cells
T5 sequence (P49961 1-510): T1 chain with A110E, T113R, A114E
Description: Inhibition of CD39 enzymatic activity in Ramos cells, AMP production by Maldi TOF mass spectrometry. Type of series: cell-based. On the procedure:
The inhibition of CD39 enzymatic activity by antibodies was evaluated by Maldi TOF mass spectrometry (production of AMP). This assay represents an assay that is relatively insensitive to down-modulation of CD39 expression. […] After washes, cells were incubated with anti-CD39 antibodies, isotype control, or ARL and 50 μM ATP for 30 minutes at 4° C. in PBS. AMP generated is quantified in supernatants by Maldi TOP.
The inhibition of CD39 enzymatic activity by antibodies was evaluated by Maldi TOF mass spectrometry (production of AMP). Briefly, 10^5 Ramos human lymphoma cells were incubated overnight at 37° C. with anti-CD39 antibodies or a chemical CD39 inhibitor (ARL 100 μM). After washes, cells were incubated with anti-CD39 antibodies, isotype control, or ARL and 50 μM ATP for 30 minutes at 4° C. in PBS. AMP generated is quantified in supernatants by Maldi TOP. Antibodies were used at 33 nM and ARL at […].

B1: Antibody I-391, Fc silent recombinant chimeric human IgG1 with heavy chain N297Q mutation (antibody, V domains shown)
VH: QIQLVQSGPELKKPGETVKISCKASGYTFRNYGMNWVKQAPGKGLKWMGWINTYTGEPTYADDFKGRFAFSLATSASTAYLQISNLKNEDTATYFCARKAYYGSNYYFDYWGQGTTLTVSS
VL: DIVMTQSHKFMSTSVGDRVSITCKASQDVSTAVAWYQQKPGQSPKLLIYSASYRYTGVPDRFTGSGSGTDFTFTISTVQAEDLAVYYCQQHYTTPPYTFGGGTKLEIKR
For the molecule B1, the binding result is recorded as “binds” in series [1], “binds” in series [2] and “no binding (tested: dose range 10 to 0.0006 µg/ml)” in series [3]. The “EC50 (inhibition of 50% of the enzymatic activity of CD39 expressed by 100,000 Ramos cells), AMP generated, Maldi TOF” value in series [4] was 1.2 nM.

B2: I-392: anti-CD39 antibody, VH SEQ ID NO: 8 and VL SEQ ID NO: 9, chimeric human IgG1 with N297Q mutation (antibody, V domains shown)
VH: QIQLVQSGPEVKKPRETVKISCKASGYTFTHYGMNWVKQAPGKGLKWMGWINTYTGEPTYADDFKGRFAFSLEASASTAYLQINNLKNEDTATYFCARRRYEGNYVFYYFDYWGQGTTLTVSS
VL: DIQMTQSPASLSASVGETVTITCRASENIYSYFSWYQQKQGKSPQLLVYTAKTLAEGVPSRFSGSGSGTQFSLKINSLQPEDFGSYYCQHHYVTPYTFGGGTKLEIK
In series [5] (Ramos cells, 50 μM ATP), B2 showed a maximum inhibition achieved of 93.4%. Also, the “blocking CD39 enzymatic activity” value in series [5] (Ramos cells, Example 6) is listed as “very potent at blocking CD39 enzymatic activity”. Further, the concentration for a half-maximal effect (EC50) in series [5] (read-out: EC50 (inhibition of 50% of the enzymatic activity of CD39), 100,000 Ramos cells, 50 μM ATP, n=3) amounted to 1.2 nM.

One may read the EC50 as the concentration that produces a half-maximal response.
